Measurements as given in publication PMC8124205, “Immuno-PET Molecular Imaging of RANKL in Cancer” (Cancers, 2021).

Molecular target: T1, osteoprotegerin (OPG) (UniProt O00300 22-401)
T1 construct: osteoprotegerin (OPG)
T1 sequence (looked up): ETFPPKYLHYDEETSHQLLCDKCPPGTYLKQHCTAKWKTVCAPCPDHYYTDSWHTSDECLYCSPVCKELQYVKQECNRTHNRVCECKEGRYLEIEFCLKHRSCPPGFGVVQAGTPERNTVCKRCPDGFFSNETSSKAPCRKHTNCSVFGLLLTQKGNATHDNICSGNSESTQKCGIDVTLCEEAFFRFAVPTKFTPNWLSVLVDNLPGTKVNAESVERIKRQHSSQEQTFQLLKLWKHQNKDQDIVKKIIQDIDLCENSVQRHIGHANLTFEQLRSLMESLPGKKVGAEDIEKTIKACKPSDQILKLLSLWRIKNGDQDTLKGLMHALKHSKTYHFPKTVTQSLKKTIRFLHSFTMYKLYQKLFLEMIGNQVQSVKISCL
Assay: non-cell based binding assay; binding to human RANKL, as previously described (ref. 14); format and conditions not told

Kd: ~0.63 nM
B1: human receptor activator of nuclear factor kappa B ligand (RANKL) (ligand, UniProt O14788 140-317, looked up)
chain: IRAEKAMVDGSWLDLAKRSKLEAQPFAHLTINATDIPSGSHKVSLSSWYHDRGWAKISNMTFSNGKLIVNQDGFYYLYANICFRHHETSGDLATEYLQLMVYVTKTSIKIPSSHTLMKGGSTKYWSGNSEFHFYSINVGGFFKLRSGEEISIEVSNPSLLDPDQDATYFGAFKVRDID
notes: also called human RANKL; huRANKL; source: recombinant protein huRANKL, provided by Amgen Inc
